Test system: Escherichia coli TOP10
Test: shrunken log2 fold change of peptide-encoding DNA abundance (4.5 h post-induction vs induction); higher = less antimicrobial activity (less host growth inhibition)
Details: time post-induction: 4.5 h; library: site-saturation at positions 5, 18, 19, 20
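Note: peptides expressed intracellularly from a pBAD plasmid library in pooled LB shake-flask culture, induced with 0.3% L-arabinose, DNA abundance read by NGS, three biological replicates, DESeq2 with apeglm shrinkage.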

| Sequence | shrunken log2 fold change |
| --- | --- |
| RRIRMRPPRLPRPRPRPVITPRP | 0.043 |
| RRIRARPPRLPRPRPRPKIFPRP | -0.0226 |
| RRIRERPPRLPRPRPRPDIPPRP | -0.366 |
| RRIRMRPPRLPRPRPRPHKQPRP | 0.0796 |
| RRIRQRPPRLPRPRPRPRYLPRP | -0.422 |
| RRIRVRPPRLPRPRPRPSEYPRP | -0.418 |
| RRIRWRPPRLPRPRPRPKIWPRP | 0.272 |
| RRIRMRPPRLPRPRPRPDDCPRP | 0.681 |
| RRIRSRPPRLPRPRPRPHPAPRP | -0.177 |
| RRIRYRPPRLPRPRPRPCLHPRP | -0.633 |
| RRIRNRPPRLPRPRPRPDSYPRP | -0.054 |
| RRIRNRPPRLPRPRPRPKLEPRP | 0.0965 |
| RRIRPRPPRLPRPRPRPKTAPRP | -0.109 |
| RRIRIRPPRLPRPRPRPFRLPRP | -0.223 |
| RRIRKRPPRLPRPRPRPRSNPRP | 0.515 |
| RRIRCRPPRLPRPRPRPCCMPRP | -0.392 |
| RRIRARPPRLPRPRPRPFSKPRP | -0.301 |
| RRIRCRPPRLPRPRPRPIQMPRP | -0.0491 |
| RRIRDRPPRLPRPRPRPIWMPRP | -0.00247 |
| RRIRARPPRLPRPRPRPWPWPRP | 0.261 |
| RRIRFRPPRLPRPRPRPALLPRP | -0.00442 |
| RRIRRRPPRLPRPRPRPQCDPRP | 0.333 |
| RRIRRRPPRLPRPRPRPGEIPRP | 0.321 |
| RRIRQRPPRLPRPRPRPMPRPRP | 0.0657 |
| RRIRYRPPRLPRPRPRPGIGPRP | -0.659 |

| Sequence | shrunken log2 fold change |
| --- | --- |
| RRIRARPPRLPRPRPRPNPVPRP | 0.0917 |
| RRIRQRPPRLPRPRPRPFEAPRP | -0.0497 |
| RRIRQRPPRLPRPRPRPWKHPRP | -0.0075 |
| RRIRSRPPRLPRPRPRPVVQPRP | -0.0812 |
| RRIRFRPPRLPRPRPRPTRHPRP | 0.519 |
| RRIRGRPPRLPRPRPRPHPPPRP | 0.759 |
| RRIRTRPPRLPRPRPRPRICPRP | -0.201 |
| RRIRIRPPRLPRPRPRPQRDPRP | 0.0634 |
| RRIRDRPPRLPRPRPRPMFEPRP | 0.0172 |
| RRIRKRPPRLPRPRPRPQDCPRP | -0.104 |
| RRIRMRPPRLPRPRPRPIRPPRP | -0.127 |
| RRIRQRPPRLPRPRPRPLHIPRP | -0.423 |
| RRIRERPPRLPRPRPRPWEQPRP | -0.131 |
| RRIRWRPPRLPRPRPRPWNEPRP | 0.0237 |
| RRIRHRPPRLPRPRPRPWIRPRP | -0.0813 |
| RRIRMRPPRLPRPRPRPIFIPRP | 2.07 |
| RRIRMRPPRLPRPRPRPNYNPRP | -0.678 |
| RRIRHRPPRLPRPRPRPQGAPRP | -0.171 |
| RRIRCRPPRLPRPRPRPRGPPRP | 0.816 |
| RRIRSRPPRLPRPRPRPTMYPRP | -0.247 |
| RRIRMRPPRLPRPRPRPRQEPRP | 1.13 |
| RRIRLRPPRLPRPRPRPHIRPRP | -0.108 |
| RRIRVRPPRLPRPRPRPGFAPRP | 0.299 |
| RRIRGRPPRLPRPRPRPKRDPRP | 0.738 |
| RRIRIRPPRLPRPRPRPIWLPRP | -0.11 |

| Sequence | shrunken log2 fold change |
| --- | --- |
| RRIRMRPPRLPRPRPRPVKQPRP | 0.0432 |
| RRIRFRPPRLPRPRPRPTMCPRP | -0.274 |
| RRIRCRPPRLPRPRPRPHEGPRP | -0.172 |
| RRIRQRPPRLPRPRPRPKSKPRP | -0.123 |
| RRIRHRPPRLPRPRPRPQWSPRP | -0.0854 |
| RRIRERPPRLPRPRPRPRCYPRP | -0.138 |
| RRIRCRPPRLPRPRPRPYMAPRP | -0.283 |
| RRIRWRPPRLPRPRPRPFHHPRP | -0.077 |
| RRIRFRPPRLPRPRPRPWREPRP | -0.149 |
| RRIRNRPPRLPRPRPRPFDWPRP | 0.0435 |
| RRIRWRPPRLPRPRPRPGYLPRP | 0.0065 |
| RRIRYRPPRLPRPRPRPRDFPRP | -0.161 |
| RRIRIRPPRLPRPRPRPPQMPRP | -0.0135 |
| RRIRHRPPRLPRPRPRPIGDPRP | -0.00136 |
| RRIRWRPPRLPRPRPRPGCPPRP | 0.0461 |
| RRIRFRPPRLPRPRPRPKNVPRP | 0.04 |
| RRIRDRPPRLPRPRPRPGDNPRP | 2.29 |
| RRIRKRPPRLPRPRPRPMMVPRP | 0.0826 |
| RRIRMRPPRLPRPRPRPNWKPRP | -0.0351 |
| RRIRNRPPRLPRPRPRPVIFPRP | -0.565 |
| RRIRRRPPRLPRPRPRPANSPRP | 0.0678 |
| RRIRARPPRLPRPRPRPFFGPRP | 0.349 |
| RRIRTRPPRLPRPRPRPFWNPRP | -0.104 |
| RRIRRRPPRLPRPRPRPGCKPRP | 0.12 |
| RRIRIRPPRLPRPRPRPRPHPRP | 1.98 |

| Sequence | shrunken log2 fold change |
| --- | --- |
| RRIRQRPPRLPRPRPRPLYGPRP | 0.0686 |
| RRIRWRPPRLPRPRPRPGGRPRP | 0.418 |
| RRIRMRPPRLPRPRPRPVLVPRP | 0.223 |
| RRIRKRPPRLPRPRPRPNISPRP | -0.102 |
| RRIRYRPPRLPRPRPRPAEGPRP | -0.169 |
| RRIRIRPPRLPRPRPRPIPPPRP | 0.112 |
| RRIRERPPRLPRPRPRPVFFPRP | 0.0585 |
| RRIRWRPPRLPRPRPRPECCPRP | 1.22 |
| RRIRERPPRLPRPRPRPIQRPRP | 0.146 |
| RRIRRRPPRLPRPRPRPLSFPRP | -0.0589 |
| RRIRNRPPRLPRPRPRPSFGPRP | 0.00557 |
| RRIRGRPPRLPRPRPRPMAWPRP | 0.743 |
| RRIRHRPPRLPRPRPRPIPCPRP | -0.0558 |
| RRIRVRPPRLPRPRPRPQPFPRP | -0.0258 |
| RRIRERPPRLPRPRPRPAARPRP | 0.226 |
| RRIRMRPPRLPRPRPRPLMGPRP | -0.0985 |
| RRIRKRPPRLPRPRPRPIAIPRP | -0.282 |
| RRIRFRPPRLPRPRPRPWNAPRP | -0.84 |
| RRIRLRPPRLPRPRPRPSECPRP | 0.215 |
| RRIRLRPPRLPRPRPRPWCIPRP | 0.0272 |
| RRIRHRPPRLPRPRPRPLNWPRP | 0.0279 |
| RRIRCRPPRLPRPRPRPSFIPRP | -0.811 |
| RRIRARPPRLPRPRPRPAWNPRP | -0.132 |
| RRIRFRPPRLPRPRPRPWQTPRP | -0.0222 |
| RRIRKRPPRLPRPRPRPINRPRP | -0.159 |

| Sequence | shrunken log2 fold change |
| --- | --- |
| RRIRFRPPRLPRPRPRPSMQPRP | -0.209 |
| RRIRKRPPRLPRPRPRPGNDPRP | 0.054 |
| RRIRIRPPRLPRPRPRPSANPRP | -0.15 |
| RRIRRRPPRLPRPRPRPTVLPRP | -0.227 |
| RRIRNRPPRLPRPRPRPTNEPRP | 0.239 |
| RRIRVRPPRLPRPRPRPDNCPRP | -0.0588 |
| RRIRARPPRLPRPRPRPHQQPRP | 0.33 |
| RRIRTRPPRLPRPRPRPKVVPRP | 2.37 |
| RRIRDRPPRLPRPRPRPLWWPRP | 0.721 |
| RRIRTRPPRLPRPRPRPKTFPRP | -0.00423 |
| RRIRLRPPRLPRPRPRPTWTPRP | -0.0607 |
| RRIRMRPPRLPRPRPRPAIYPRP | 0.0389 |
| RRIRKRPPRLPRPRPRPLLCPRP | 0.347 |
| RRIRQRPPRLPRPRPRPGWEPRP | -0.00991 |
| RRIRKRPPRLPRPRPRPTFCPRP | 0.193 |
| RRIRNRPPRLPRPRPRPADTPRP | 0.124 |
| RRIRERPPRLPRPRPRPENGPRP | -0.025 |
| RRIRMRPPRLPRPRPRPGKAPRP | 0.153 |
| RRIRTRPPRLPRPRPRPCMCPRP | -0.222 |
| RRIRCRPPRLPRPRPRPLTCPRP | -0.184 |
| RRIRERPPRLPRPRPRPTMGPRP | -0.253 |
| RRIRQRPPRLPRPRPRPYISPRP | -0.716 |
| RRIRKRPPRLPRPRPRPDFQPRP | 0.33 |
| RRIRGRPPRLPRPRPRPGNLPRP | -0.639 |
| RRIRRRPPRLPRPRPRPQVHPRP | 0.148 |
